Source: patent US20140087995A1 (published 2014)
Numbered stars: 1 amine (or outer) side, 2 acyl side, 3 side chain; on linkers, the order of the positions; unused ones are H or OH. Bridge positions count the residues as written; N and C are the ends. Side chains are listed from the residue outwards. Ends that are not written are not given here. * marks the point of attachment. C20 diacid = O=C(O)CCCCCCCCCCCCCCCCCCC(=O)*; γGlu = O=C(O)[C@H](CCC(=O)[*:2])N[*:1]; AEEA = NCCOCCOCC(=O)O

T1: human amylin receptor (amylin 3(a) receptor: human calcitonin receptor with RAMP-3) (human, UniProt P30988 25-474; O60896 24-148)
T1 sequence (looked up) 1: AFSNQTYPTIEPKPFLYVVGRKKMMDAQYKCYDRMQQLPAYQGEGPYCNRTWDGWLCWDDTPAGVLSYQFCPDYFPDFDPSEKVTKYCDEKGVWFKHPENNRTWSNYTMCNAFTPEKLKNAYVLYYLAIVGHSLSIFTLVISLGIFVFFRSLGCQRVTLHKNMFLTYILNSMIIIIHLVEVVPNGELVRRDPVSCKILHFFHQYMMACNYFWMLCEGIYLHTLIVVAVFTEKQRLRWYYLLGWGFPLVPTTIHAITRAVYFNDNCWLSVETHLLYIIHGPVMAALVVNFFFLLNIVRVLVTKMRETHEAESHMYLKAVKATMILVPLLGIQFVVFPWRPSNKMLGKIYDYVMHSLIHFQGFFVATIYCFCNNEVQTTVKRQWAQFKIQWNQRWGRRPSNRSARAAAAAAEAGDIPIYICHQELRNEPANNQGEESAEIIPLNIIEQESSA
T1 sequence (looked up) 2: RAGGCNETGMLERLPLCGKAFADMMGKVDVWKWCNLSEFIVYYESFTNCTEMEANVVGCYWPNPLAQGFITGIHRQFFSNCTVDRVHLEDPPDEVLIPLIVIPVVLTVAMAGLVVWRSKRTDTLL

T2: human calcitonin receptor (human, UniProt P30988 25-474)
T2 sequence (looked up): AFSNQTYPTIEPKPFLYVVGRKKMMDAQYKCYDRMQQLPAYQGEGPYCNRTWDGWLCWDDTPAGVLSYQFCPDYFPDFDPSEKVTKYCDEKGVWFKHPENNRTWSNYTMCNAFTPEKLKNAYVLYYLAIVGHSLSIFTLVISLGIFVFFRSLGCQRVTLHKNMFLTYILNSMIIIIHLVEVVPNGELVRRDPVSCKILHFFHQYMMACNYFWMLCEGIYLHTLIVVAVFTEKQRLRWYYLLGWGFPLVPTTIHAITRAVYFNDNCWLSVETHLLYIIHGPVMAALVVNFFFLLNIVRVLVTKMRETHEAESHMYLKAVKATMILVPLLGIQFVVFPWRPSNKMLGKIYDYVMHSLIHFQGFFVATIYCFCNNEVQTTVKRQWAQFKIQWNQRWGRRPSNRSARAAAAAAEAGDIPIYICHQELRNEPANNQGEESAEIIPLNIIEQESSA


Assays:
[1] = target: T1, human amylin receptor (amylin 3(a) …); assay: cell-based or functional assay
[2] = target: T2, human calcitonin receptor; assay: cell-based or functional assay

Binder	hAmylin-R funct. EC50 [1]	Ratio hCT/hAmylin funct. [2]	hCTR funct. EC50 [2]
K([AEEA-AEEA-γGlu-C20 diacid])CNTATCATQRLANFLRHSSPNFGAIPSSTNVGSETY-NH2 (disulfide 2-7; N-terminus assumed; SMILES CC[C@H](C)[C@H](NC(=O)[C@H](C)NC(=O)CNC(=O)[C@H](Cc1ccccc1)NC(=O)[C@H](CC(N)=O)NC(=O)[C@@H]1CCCN1C(=O)[C@H](CO)NC(=O)[C@H](CO)NC(=O)[C@H](Cc1c[nH]cn1)NC(=O)[C@H](CCCNC(=N)N)NC(=O)[C@H](CC(C)C)NC(=O)[C@H](Cc1ccccc1)NC(=O)[C@H](CC(N)=O)NC(=O)[C@H](C)NC(=O)[C@H](CC(C)C)NC(=O)[C@H](CCCNC(=N)N)NC(=O)[C@H](CCC(N)=O)NC(=O)[C@@H](NC(=O)[C@H](C)NC(=O)[C@@H]1CSSC[C@H](NC(=O)[C@@H](N)CCCCNC(=O)COCCOCCNC(=O)COCCOCCNC(=O)CC[C@H](NC(=O)CCCCCCCCCCCCCCCCCCC(=O)O)C(=O)O)C(=O)N[C@@H](CC(N)=O)C(=O)N[C@@H]([C@@H](C)O)C(=O)N[C@@H](C)C(=O)N[C@@H]([C@@H](C)O)C(=O)N1)[C@@H](C)O)C(=O)N1CCC[C@H]1C(=O)N[C@@H](CO)C(=O)N[C@@H](CO)C(=O)N[C@H](C(=O)N[C@@H](CC(N)=O)C(=O)N[C@H](C(=O)NCC(=O)N[C@@H](CO)C(=O)N[C@@H](CCC(=O)O)C(=O)N[C@H](C(=O)N[C@@H](Cc1ccc(O)cc1)C(N)=O)[C@@H](C)O)C(C)C)[C@@H](C)O, also called compound 25)	0.217 nM	46.2	10 nM
K([AEEA-γGlu-C20 diacid])CNTATCATQRLANFLRHSSPNFGAIPSSTNVGSETY-NH2 (disulfide 2-7; N-terminus assumed; SMILES CC[C@H](C)[C@H](NC(=O)[C@H](C)NC(=O)CNC(=O)[C@H](Cc1ccccc1)NC(=O)[C@H](CC(N)=O)NC(=O)[C@@H]1CCCN1C(=O)[C@H](CO)NC(=O)[C@H](CO)NC(=O)[C@H](Cc1c[nH]cn1)NC(=O)[C@H](CCCNC(=N)N)NC(=O)[C@H](CC(C)C)NC(=O)[C@H](Cc1ccccc1)NC(=O)[C@H](CC(N)=O)NC(=O)[C@H](C)NC(=O)[C@H](CC(C)C)NC(=O)[C@H](CCCNC(=N)N)NC(=O)[C@H](CCC(N)=O)NC(=O)[C@@H](NC(=O)[C@H](C)NC(=O)[C@@H]1CSSC[C@H](NC(=O)[C@@H](N)CCCCNC(=O)COCCOCCNC(=O)CC[C@H](NC(=O)CCCCCCCCCCCCCCCCCCC(=O)O)C(=O)O)C(=O)N[C@@H](CC(N)=O)C(=O)N[C@@H]([C@@H](C)O)C(=O)N[C@@H](C)C(=O)N[C@@H]([C@@H](C)O)C(=O)N1)[C@@H](C)O)C(=O)N1CCC[C@H]1C(=O)N[C@@H](CO)C(=O)N[C@@H](CO)C(=O)N[C@H](C(=O)N[C@@H](CC(N)=O)C(=O)N[C@H](C(=O)NCC(=O)N[C@@H](CO)C(=O)N[C@@H](CCC(=O)O)C(=O)N[C@H](C(=O)N[C@@H](Cc1ccc(O)cc1)C(N)=O)[C@@H](C)O)C(C)C)[C@@H](C)O, also called compound 26)	0.212 nM	29.9	6.34 nM
K([γGlu-C20 diacid])CNTATCATQRLANFLRHSSPNFGAIPSSTNVGSKTY-NH2 (disulfide 2-7; N-terminus assumed; SMILES CC[C@H](C)[C@H](NC(=O)[C@H](C)NC(=O)CNC(=O)[C@H](Cc1ccccc1)NC(=O)[C@H](CC(N)=O)NC(=O)[C@@H]1CCCN1C(=O)[C@H](CO)NC(=O)[C@H](CO)NC(=O)[C@H](Cc1c[nH]cn1)NC(=O)[C@H](CCCNC(=N)N)NC(=O)[C@H](CC(C)C)NC(=O)[C@H](Cc1ccccc1)NC(=O)[C@H](CC(N)=O)NC(=O)[C@H](C)NC(=O)[C@H](CC(C)C)NC(=O)[C@H](CCCNC(=N)N)NC(=O)[C@H](CCC(N)=O)NC(=O)[C@@H](NC(=O)[C@H](C)NC(=O)[C@@H]1CSSC[C@H](NC(=O)[C@@H](N)CCCCNC(=O)CC[C@H](NC(=O)CCCCCCCCCCCCCCCCCCC(=O)O)C(=O)O)C(=O)N[C@@H](CC(N)=O)C(=O)N[C@@H]([C@@H](C)O)C(=O)N[C@@H](C)C(=O)N[C@@H]([C@@H](C)O)C(=O)N1)[C@@H](C)O)C(=O)N1CCC[C@H]1C(=O)N[C@@H](CO)C(=O)N[C@@H](CO)C(=O)N[C@H](C(=O)N[C@@H](CC(N)=O)C(=O)N[C@H](C(=O)NCC(=O)N[C@@H](CO)C(=O)N[C@@H](CCCCN)C(=O)N[C@H](C(=O)N[C@@H](Cc1ccc(O)cc1)C(N)=O)[C@@H](C)O)C(C)C)[C@@H](C)O, also called compound 35) [N^ε1-[(4S)-4-carboxy-4-(19-carboxynonadecanoylamino)butanoyl]-[Arg17,Pro21,Pro27,Lys35]-h-amylin]	0.364 nM	15	5.46 nM
K([γGlu-C20 diacid])CNTATCATQRLANFLRHSSPNFGAIPSSTNVGSETY-NH2 (disulfide 2-7; N-terminus assumed; SMILES CC[C@H](C)[C@H](NC(=O)[C@H](C)NC(=O)CNC(=O)[C@H](Cc1ccccc1)NC(=O)[C@H](CC(N)=O)NC(=O)[C@@H]1CCCN1C(=O)[C@H](CO)NC(=O)[C@H](CO)NC(=O)[C@H](Cc1c[nH]cn1)NC(=O)[C@H](CCCNC(=N)N)NC(=O)[C@H](CC(C)C)NC(=O)[C@H](Cc1ccccc1)NC(=O)[C@H](CC(N)=O)NC(=O)[C@H](C)NC(=O)[C@H](CC(C)C)NC(=O)[C@H](CCCNC(=N)N)NC(=O)[C@H](CCC(N)=O)NC(=O)[C@@H](NC(=O)[C@H](C)NC(=O)[C@@H]1CSSC[C@H](NC(=O)[C@@H](N)CCCCNC(=O)CC[C@H](NC(=O)CCCCCCCCCCCCCCCCCCC(=O)O)C(=O)O)C(=O)N[C@@H](CC(N)=O)C(=O)N[C@@H]([C@@H](C)O)C(=O)N[C@@H](C)C(=O)N[C@@H]([C@@H](C)O)C(=O)N1)[C@@H](C)O)C(=O)N1CCC[C@H]1C(=O)N[C@@H](CO)C(=O)N[C@@H](CO)C(=O)N[C@H](C(=O)N[C@@H](CC(N)=O)C(=O)N[C@H](C(=O)NCC(=O)N[C@@H](CO)C(=O)N[C@@H](CCC(=O)O)C(=O)N[C@H](C(=O)N[C@@H](Cc1ccc(O)cc1)C(N)=O)[C@@H](C)O)C(C)C)[C@@H](C)O, also called compound 27) [N^ε1-[(4S)-4-carboxy-4-(19-carboxynonadecanoylamino)butanoyl]-[Arg17,Pro21,Pro27,Glu35]-h-amylin]	0.133 nM	22.6	3 nM

Further lines, results first:

hAmylin-R funct. EC50 [1]	Ratio hCT/hAmylin funct. [2]	hCTR funct. EC50 [2]	Binder
0.213 nM	2.2	0.47 nM	K([γGlu-γGlu-C20 diacid])CNTATCATQRLAEFLRHSSPNFGAIPSSTNVGSNTP-NH2 (disulfide 2-7; N-terminus assumed; SMILES CC[C@H](C)[C@H](NC(=O)[C@H](C)NC(=O)CNC(=O)[C@H](Cc1ccccc1)NC(=O)[C@H](CC(N)=O)NC(=O)[C@@H]1CCCN1C(=O)[C@H](CO)NC(=O)[C@H](CO)NC(=O)[C@H](Cc1c[nH]cn1)NC(=O)[C@H](CCCNC(=N)N)NC(=O)[C@H](CC(C)C)NC(=O)[C@H](Cc1ccccc1)NC(=O)[C@H](CCC(=O)O)NC(=O)[C@H](C)NC(=O)[C@H](CC(C)C)NC(=O)[C@H](CCCNC(=N)N)NC(=O)[C@H](CCC(N)=O)NC(=O)[C@@H](NC(=O)[C@H](C)NC(=O)[C@@H]1CSSC[C@H](NC(=O)[C@@H](N)CCCCNC(=O)CC[C@H](NC(=O)CC[C@H](NC(=O)CCCCCCCCCCCCCCCCCCC(=O)O)C(=O)O)C(=O)O)C(=O)N[C@@H](CC(N)=O)C(=O)N[C@@H]([C@@H](C)O)C(=O)N[C@@H](C)C(=O)N[C@@H]([C@@H](C)O)C(=O)N1)[C@@H](C)O)C(=O)N1CCC[C@H]1C(=O)N[C@@H](CO)C(=O)N[C@@H](CO)C(=O)N[C@H](C(=O)N[C@@H](CC(N)=O)C(=O)N[C@H](C(=O)NCC(=O)N[C@@H](CO)C(=O)N[C@@H](CC(N)=O)C(=O)N[C@H](C(=O)N1CCC[C@H]1C(N)=O)[C@@H](C)O)C(C)C)[C@@H](C)O, also called compound 13)
0.182 nM	16.4	3 nM	K([γGlu-γGlu-C20 diacid])CNTATCATQRLADFLRHSSPNFGAIPSSTNVGSDTY-NH2 (disulfide 2-7; N-terminus assumed; SMILES CC[C@H](C)[C@H](NC(=O)[C@H](C)NC(=O)CNC(=O)[C@H](Cc1ccccc1)NC(=O)[C@H](CC(N)=O)NC(=O)[C@@H]1CCCN1C(=O)[C@H](CO)NC(=O)[C@H](CO)NC(=O)[C@H](Cc1c[nH]cn1)NC(=O)[C@H](CCCNC(=N)N)NC(=O)[C@H](CC(C)C)NC(=O)[C@H](Cc1ccccc1)NC(=O)[C@H](CC(=O)O)NC(=O)[C@H](C)NC(=O)[C@H](CC(C)C)NC(=O)[C@H](CCCNC(=N)N)NC(=O)[C@H](CCC(N)=O)NC(=O)[C@@H](NC(=O)[C@H](C)NC(=O)[C@@H]1CSSC[C@H](NC(=O)[C@@H](N)CCCCNC(=O)CC[C@H](NC(=O)CC[C@H](NC(=O)CCCCCCCCCCCCCCCCCCC(=O)O)C(=O)O)C(=O)O)C(=O)N[C@@H](CC(N)=O)C(=O)N[C@@H]([C@@H](C)O)C(=O)N[C@@H](C)C(=O)N[C@@H]([C@@H](C)O)C(=O)N1)[C@@H](C)O)C(=O)N1CCC[C@H]1C(=O)N[C@@H](CO)C(=O)N[C@@H](CO)C(=O)N[C@H](C(=O)N[C@@H](CC(N)=O)C(=O)N[C@H](C(=O)NCC(=O)N[C@@H](CO)C(=O)N[C@@H](CC(=O)O)C(=O)N[C@H](C(=O)N[C@@H](Cc1ccc(O)cc1)C(N)=O)[C@@H](C)O)C(C)C)[C@@H](C)O, also called compound 2)
